Source: publication PMC9089384

Biological target: human SHP2 catalytic domain (human) (UniProt Q06124)

Question: How did the IC50 of inhibition of SHP2 CD PTP activity by isolated N-SH2 (Figure S2) turn out when “isolated SHP2 N-SH2 domain (domain or fragment)” was run?
Answer: Its IC50 of inhibition of SHP2 CD PTP activity by isolated N-SH2 (Figure S2) is 15 µM.
